# Residue numbers refer to the chain shown, from its start.
# T1: cynomolgus monkey FcγRIIa1 extracellular domain, His-tagged (cynomolgus monkey)
# T1 construct: also called cyno FcγRIIa1; cynoFcgRIIa1
# T1 chain: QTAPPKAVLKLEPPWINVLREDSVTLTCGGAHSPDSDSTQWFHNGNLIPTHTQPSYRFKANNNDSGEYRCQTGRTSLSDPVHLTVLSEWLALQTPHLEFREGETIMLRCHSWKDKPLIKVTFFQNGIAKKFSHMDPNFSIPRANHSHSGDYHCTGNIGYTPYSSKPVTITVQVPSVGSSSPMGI
# T2: cynomolgus monkey FcγRIIa2 extracellular domain, His-tagged (cynomolgus monkey)
# T2 construct: also called cyno FcγRIIa2; cynoFcgRIIa2
# T2 chain: T1 chain with P95T, T121A, I127K, A128S, K130N, D135N, R142Q
# T3: cynomolgus monkey FcγRIIa3 extracellular domain, His-tagged (cynomolgus monkey)
# T3 construct: also called cyno FcγRIIa3; cynoFcgRIIa3
# T3 chain: T1 chain with P95T, T121A, A128S, H133P, D135N
# T4: cynomolgus monkey FcγRIIb extracellular domain, His-tagged (cynomolgus monkey)
# T4 construct: also called cyno FcγRIIb; cynoFcγRIIb
# T4 chain: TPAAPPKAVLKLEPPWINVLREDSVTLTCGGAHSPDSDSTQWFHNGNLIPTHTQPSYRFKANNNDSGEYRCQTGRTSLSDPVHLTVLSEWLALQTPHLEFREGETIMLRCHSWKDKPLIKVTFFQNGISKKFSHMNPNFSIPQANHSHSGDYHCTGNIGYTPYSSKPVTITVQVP
# T5: cynomolgus monkey FcγRIIIaS extracellular domain, His-tagged (cynomolgus monkey, UniProt Q8SPW2 21-206 at identity 1.00))
# T5 construct: also called cyno FcγRIIIaS; cynoFcγRIIIaS
# T5 chain: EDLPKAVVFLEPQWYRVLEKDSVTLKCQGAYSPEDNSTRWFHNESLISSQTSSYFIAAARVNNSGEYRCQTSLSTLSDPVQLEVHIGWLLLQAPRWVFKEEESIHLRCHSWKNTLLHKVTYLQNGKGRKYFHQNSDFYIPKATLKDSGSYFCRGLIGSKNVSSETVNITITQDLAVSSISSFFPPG
# T6: human FcγRIIaH extracellular domain, His-tagged (human, UniProt P12318 34-217)
# T6 construct: also called human FcγRIIa (type H); FcgRIIaH
# T6 sequence: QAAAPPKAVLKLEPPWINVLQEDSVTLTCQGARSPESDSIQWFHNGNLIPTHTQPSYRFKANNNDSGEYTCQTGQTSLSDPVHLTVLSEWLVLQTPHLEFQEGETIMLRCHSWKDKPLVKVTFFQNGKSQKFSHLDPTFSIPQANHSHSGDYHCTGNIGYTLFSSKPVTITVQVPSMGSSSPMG
# T7: human FcγRIIb extracellular domain, His-tagged (human, UniProt P31994 43-217)
# T7 construct: also called FcgRIIb (human)
# T7 sequence: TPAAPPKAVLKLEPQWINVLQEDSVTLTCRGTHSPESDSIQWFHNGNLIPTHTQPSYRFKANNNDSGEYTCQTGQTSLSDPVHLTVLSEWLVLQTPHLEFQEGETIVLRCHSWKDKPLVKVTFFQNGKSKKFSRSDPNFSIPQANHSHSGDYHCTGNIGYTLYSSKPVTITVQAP
# T8: human FcγRIIaH extracellular domain, C-terminal His-tag (human, UniProt P12318 34-217)
# T8 construct: also called human FcγRIIa (type H); FcgRIIaH; not shown: His-tag added to C-terminus
# T8 sequence: T6 sequence
# B1: MS_M103205H795-SG1/M103202L889-SK1 (antibody, human IgG1, kappa)
# heavy: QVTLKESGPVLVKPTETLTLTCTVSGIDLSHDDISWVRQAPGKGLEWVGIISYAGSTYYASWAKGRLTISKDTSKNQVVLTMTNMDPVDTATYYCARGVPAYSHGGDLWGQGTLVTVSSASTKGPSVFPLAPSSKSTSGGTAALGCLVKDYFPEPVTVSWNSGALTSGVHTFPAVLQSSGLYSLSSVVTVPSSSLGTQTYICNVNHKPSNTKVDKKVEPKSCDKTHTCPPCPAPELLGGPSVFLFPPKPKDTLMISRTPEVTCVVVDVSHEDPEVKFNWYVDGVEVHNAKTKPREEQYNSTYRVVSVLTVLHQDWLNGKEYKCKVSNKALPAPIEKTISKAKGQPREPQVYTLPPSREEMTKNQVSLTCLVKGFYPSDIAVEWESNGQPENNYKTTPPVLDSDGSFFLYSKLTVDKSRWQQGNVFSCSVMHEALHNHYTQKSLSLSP
# light: DIVMTQSPATLSLSPGERATLSCTSSQSVYHANWLSWFQQKPGQPPKLLIYWASTLAYGVPSRFSGSGSGTDFTLTISSLQPEDAATYYCAGGYGGGRYAFGQGTKVEIKRTVAAPSVFIFPPSDEQLKSGTASVVCLLNNFYPREAKVQWKVDNALQSGNSQESVTEQDSKDSTYSLSSTLTLSKADYEKHKVYACEVTHQGLSSPVTKSFNRGEC
# notes: Parent antibody of the Fc variants; heavy chain constant region SG1, light chain M103202L889-SK1; also called MS1032LO06-SG1
# B2: M103205H795-MY006/M103202L889-SK1 (antibody, human IgG1, kappa)
# heavy: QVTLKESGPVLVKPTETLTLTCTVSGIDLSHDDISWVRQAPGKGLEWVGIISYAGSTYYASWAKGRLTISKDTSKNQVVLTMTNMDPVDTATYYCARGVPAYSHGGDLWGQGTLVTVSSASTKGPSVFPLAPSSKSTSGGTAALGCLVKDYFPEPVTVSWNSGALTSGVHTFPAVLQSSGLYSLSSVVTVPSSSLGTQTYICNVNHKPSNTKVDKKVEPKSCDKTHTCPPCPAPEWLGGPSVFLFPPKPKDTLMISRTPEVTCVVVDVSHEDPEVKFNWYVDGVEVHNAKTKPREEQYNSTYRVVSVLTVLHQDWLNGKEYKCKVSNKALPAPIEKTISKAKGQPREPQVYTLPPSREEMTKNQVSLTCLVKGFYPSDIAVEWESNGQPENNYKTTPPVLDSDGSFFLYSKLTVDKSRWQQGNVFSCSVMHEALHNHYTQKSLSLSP
# light: B1 light
# notes: Substitution put into M103205H795-SG1
# B3: M103205H795-MY008/M103202L889-SK1 (antibody, human IgG1, kappa)
# heavy: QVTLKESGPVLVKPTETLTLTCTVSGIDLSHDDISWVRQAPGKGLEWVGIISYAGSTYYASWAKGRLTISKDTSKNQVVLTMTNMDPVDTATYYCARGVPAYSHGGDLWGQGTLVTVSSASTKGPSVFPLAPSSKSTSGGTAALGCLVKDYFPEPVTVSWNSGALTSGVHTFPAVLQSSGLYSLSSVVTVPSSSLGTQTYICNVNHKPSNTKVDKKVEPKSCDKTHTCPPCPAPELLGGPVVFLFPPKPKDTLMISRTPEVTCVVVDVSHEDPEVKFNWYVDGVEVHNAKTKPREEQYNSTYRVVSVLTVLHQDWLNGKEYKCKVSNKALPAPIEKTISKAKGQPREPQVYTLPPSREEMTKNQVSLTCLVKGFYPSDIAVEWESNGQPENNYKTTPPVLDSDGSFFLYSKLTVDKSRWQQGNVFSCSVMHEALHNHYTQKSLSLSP
# light: B1 light
# notes: as for B2
# B4: M103205H795-MY242/M103202L889-SK1 (antibody, human IgG1, kappa)
# heavy: QVTLKESGPVLVKPTETLTLTCTVSGIDLSHDDISWVRQAPGKGLEWVGIISYAGSTYYASWAKGRLTISKDTSKNQVVLTMTNMDPVDTATYYCARGVPAYSHGGDLWGQGTLVTVSSASTKGPSVFPLAPSSKSTSGGTAALGCLVKDYFPEPVTVSWNSGALTSGVHTFPAVLQSSGLYSLSSVVTVPSSSLGTQTYICNVNHKPSNTKVDKKVEPKSCDKTHTCPPCPAPELLGGISVFLFPPKPKDTLMISRTPEVTCVVVDVSDEDPEVKFNWYVDGVEVHNAKTKPREEQYNSTYRVVSVLTVLHQDWLNGKEYKCKVSNKALPKPIEKTISKAKGQPREPQVYTLPPSREEMTKNQVSLTCLVKGFYPSDIAVEWESNGQPENNYKTTPKVLDSDGSFFLYSKLTVDKSRWQQGNVFSCSVMHEALHNHYTQKSLSLSP
# light: B1 light
# B5: M103205H795-MY276/M103202L889-SK1 (antibody, human IgG1, kappa)
# heavy: B4 heavy with G238I, I240P
# light: B1 light
# B6: M103205H795-MY279/M103202L889-SK1 (antibody, human IgG1, kappa)
# heavy: B4 heavy with G238H, I240P, Q297L, K398P
# light: B1 light
# B7: M103205H795-MY274/M103202L889-SK1 (antibody, human IgG1, kappa)
# heavy: B4 heavy with G238T, I240P
# light: B1 light
# B8: M103205H795-MY311/M103202L889-SK1 (antibody, human IgG1, kappa)
# heavy: B4 heavy with G238T, I240P, D270E, Q297L, K398P
# light: B1 light
# B9: M103205H795-MY312/M103202L889-SK1 (antibody, human IgG1, kappa)
# heavy: B4 heavy with G238T, I240P, D270E, K328T, K398M
# light: B1 light
# B10: M103205H795-MY309/M103202L889-SK1 (antibody, human IgG1, kappa)
# heavy: B4 heavy with G238T, I240P, D270E, K398M
# light: B1 light
# B11: M103205H795-MY270/M103202L889-SK1 (antibody, human IgG1, kappa)
# heavy: B4 heavy with G238H, I240P
# light: B1 light
# B12: M103205H795-MY273/M103202L889-SK1 (antibody, human IgG1, kappa)
# heavy: B4 heavy with G238L, I240P
# light: B1 light
# B13: M103205H795-MY293/M103202L889-SK1 (antibody, human IgG1, kappa)
# heavy: B4 heavy with G239Y, I240P, D270E, Q297L
# light: B1 light
# B14: M103205H795-MY271/M103202L889-SK1 (antibody, human IgG1, kappa)
# heavy: B4 heavy with G238V, I240P
# light: B1 light
# B15: M103205H795-MY280/M103202L889-SK1 (antibody, human IgG1, kappa)
# heavy: B4 heavy with G238V, I240P, Q297L, K398P
# light: B1 light
# B16: M103205H795-MY281/M103202L889-SK1 (antibody, human IgG1, kappa)
# heavy: B4 heavy with G238Q, I240P, Q297L, K398P
# light: B1 light
# B17: M103205H795-MY272/M103202L889-SK1 (antibody, human IgG1, kappa)
# heavy: B4 heavy with G238Q, I240P
# light: B1 light
# B18: M103205H795-MY321/M103202L889-SK1 (antibody, human IgG1, kappa)
# heavy: B4 heavy with G238H, I240P, K398M
# light: B1 light
# B19: M103205H795-MY269/M103202L889-SK1 (antibody, human IgG1, kappa)
# heavy: B4 heavy with G238M, I240P
# light: B1 light
# B20: M103205H795-MY292/M103202L889-SK1 (antibody, human IgG1, kappa)
# heavy: B4 heavy with G239Y, I240P, Q297L, K398M
# light: B1 light
# B21: M103205H795-MY308/M103202L889-SK1 (antibody, human IgG1, kappa)
# heavy: B4 heavy with G238T, I240P, D270E, K398P
# light: B1 light
# B22: M103205H795-MY278/M103202L889-SK1 (antibody, human IgG1, kappa)
# heavy: B4 heavy with G238M, I240P, Q297L, K398P
# light: B1 light
# B23: M103205H795-MY310/M103202L889-SK1 (antibody, human IgG1, kappa)
# heavy: B4 heavy with G238T, I240P, D270E, K328T, K398P
# light: B1 light
# B24: M103205H795-MY318/M103202L889-SK1 (antibody, human IgG1, kappa)
# heavy: B4 heavy with G238L, I240P, D270E, K328T, K398M
# light: B1 light
# Target: T1, cynomolgus monkey FcγRIIa1 …
# Test: SPR, antibody captured, FcgR analyte
row,Binder,Kd [µM]
1,B1,3.2
2,B2,2
3,B3,4.2

# Target: T2, cynomolgus monkey FcγRIIa2 …
# Test: SPR, antibody captured, FcgR analyte
row,Binder,Kd [µM]
1,B1,5.1
2,B2,1.5
3,B3,3.7

# Target: T3, cynomolgus monkey FcγRIIa3 …
# Test: SPR, antibody captured, FcgR analyte
row,Binder,Kd [µM]
1,B1,17
2,B2,3.6
3,B3,24

# Target: T4, cynomolgus monkey FcγRIIb extracellular …
# Test: SPR, antibody captured, FcgR analyte
row,Binder,Kd [nM]
1,B1,1800
2,B2,920
3,B3,1700

# Target: T5, cynomolgus monkey FcγRIIIaS …
# Test: SPR, antibody captured, FcgR analyte
row,Binder,Kd [nM]
1,B1,360
2,B2,320
3,B3,370

# Target: T6, human FcγRIIaH extracellular domain, …
# Test: SPR, antibody captured, FcgR analyte
row,Binder,Kd [nM]
1,B1,690
2,B2,1300
3,B3,1600

# Target: T7, human FcγRIIb extracellular domain, …
# Test: SPR, antibody captured, FcgR analyte
row,Binder,Kd [nM]
1,B1,4600
2,B2,2300
3,B3,2600

# Target: T9, human FcγRIIIaV extracellular domain, His-tagged (human, UniProt P08637 17-208)
# T9 construct: also called FcgRIIIaV
# T9 sequence (P08637 17-208 F176V): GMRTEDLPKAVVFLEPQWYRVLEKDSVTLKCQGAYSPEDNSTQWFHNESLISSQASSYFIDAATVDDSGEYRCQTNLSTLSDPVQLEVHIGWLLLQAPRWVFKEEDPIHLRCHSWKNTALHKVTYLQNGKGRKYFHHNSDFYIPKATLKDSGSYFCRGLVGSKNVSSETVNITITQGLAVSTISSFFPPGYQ
# Test: SPR, antibody captured, FcgR analyte
row,Binder,Kd [nM]
1,B1,810
2,B2,730
3,B3,630

# Target: T10, cynomolgus monkey FcγRIIIaS extracellular domain, C-terminal His-tag (cynomolgus monkey, UniProt A3RFZ7 21-206 (rhesus entry))
# T10 construct: also called cyno FcγRIIIaS; cynoFcγRIIIaS; not shown: His-tag added to C-terminus
# Test: SPR (Biacore), antibody captured, FcgR analyte, 25 C
row,Binder,Kd [nM]
1,B4,990
2,B5,1200
3,B6,2400
4,B7,670
5,B8,2400
6,B9,650
7,B10,1200
8,B11,1100
9,B12,1700
10,B13,4200
11,B14,870
12,B15,1800
13,B16,740
14,B17,290
15,B18,11000
16,B19,220
17,B20,4000
18,B21,2900
19,B22,740
20,B23,1800
21,B24,1500

# Target: T8, human FcγRIIaH extracellular domain, …
# Test: as above
row,Binder,Kd [nM]
1,B4,820
2,B5,53
3,B6,140
4,B7,8100
5,B8,200
6,B9,110
7,B10,140
8,B11,73
9,B12,510
10,B13,1300
11,B14,44
12,B15,81
13,B16,130
14,B17,92
15,B18,71
16,B19,230
17,B20,950
18,B21,450
19,B22,530
20,B23,400
21,B24,1100
